Laboratory results published in patent publication US20240400708A1.
Changes are numbered by the printed parent chain. Names may count otherwise.

B1: feline IgG1a S434G (antibody, part only; not given: Variable domains, not shown: another chain or arm of the molecule)
constant: ASTTAPSVFPLAPSCGTTSGATVALACLVLGYFPEPVTVSWNSGALTSGVHTFPAVLQASGLYSLSSMVTVPSSRWLSDTFTCNVAHPPSNTKVDKTVRKTDHPPGPKPCDCPKCPPPEMLGGPSIFIFPPKPKDTLSISRTPEVTCLVVDLGPDDSDVQITWFVDNTQVYTAKTSPREEQFNSTYRVVSVLPILHQDWLKGKEFKCKVNSKSLPSPIERTISKAKGQPHEPQVYVLPPAQEELSRNKVSVTCLIKSFHPPDIAVEWEITGQPEPENNYRTTPPQLDSDGTYFVYSKLSVDRSHWQRGNTYTCSVSHEALHGHHTQKSLTQSPGK
B2: feline IgG1a mutant ID No. 306: D399M, T403R (antibody, part only; not given: Variable domains, not shown: another chain or arm of the molecule; small tags and cut ends)
constant: B1 constant with D287M, T291R, G322S
B3: feline IgG1a S252F/S434Y (antibody, part only; not given: Variable domains, not shown: another chain or arm of the molecule)
constant: B1 constant with S138F, G322Y
B4: feline IgG1a mutant ID No. 298: S428Y, Q311W, D312P, L314K (antibody, part only; not given: Variable domains, not shown: another chain or arm of the molecule)
constant: B1 constant with Q197W, D198P, L200K, S316Y, G322S
B5: feline IgG1a S254V (antibody, part only; not given: Variable domains, not shown: another chain or arm of the molecule)
constant: B1 constant with S140V, G322S
B6: feline IgG1a A431K (antibody, part only; not given: variable domains and light chain, not shown: another chain or arm of the molecule)
constant: B1 constant with A319K, G322S
B7: feline IgG1a S252R/S428L/S434F (antibody, part only; not given: Variable domains, not shown: another chain or arm of the molecule)
constant: B1 constant with S138R, S316L, G322F
B8: feline IgG1a mutant ID No. 314: Q311R, D312P, L314K (antibody, part only; not given: Variable domains, not shown: another chain or arm of the molecule)
constant: B1 constant with Q197R, D198P, L200K, G322S
B9: feline IgG1a S252Y/Q311W/L314K (antibody, part only; not given: Variable domains, not shown: another chain or arm of the molecule)
constant: B1 constant with S138Y, Q197W, L200K, G322S
B10: feline IgG1a S252F/S434F (antibody, part only; not given: Variable domains, not shown: another chain or arm of the molecule)
constant: B1 constant with S138F, G322F
B11: feline IgG1a Q311W/D312P/S434Y (antibody, part only; not given: Variable domains, not shown: another chain or arm of the molecule)
constant: B1 constant with Q197W, D198P, G322Y
B12: feline IgG1a S428Y (antibody, part only; not given: Variable domains, not shown: another chain or arm of the molecule)
constant: B1 constant with S316Y, G322S
B13: feline IgG1a S252R (antibody, part only; not given: Variable domains, not shown: another chain or arm of the molecule)
constant: B1 constant with S138R, G322S
B14: feline IgG1a mutant ID No. 309: P247V, T250Q (antibody, part only; not given: Variable domains, not shown: another chain or arm of the molecule; small tags and cut ends)
constant: B1 constant with P133V, T136Q, G322S
B15: feline IgG1a S252R/S434H (antibody, part only; not given: Variable domains, not shown: another chain or arm of the molecule)
constant: B1 constant with S138R, G322H
B16: feline IgG1a D312P/S434Y (antibody, part only; not given: Variable domains, not shown: another chain or arm of the molecule)
constant: B1 constant with D198P, G322Y
B17: feline IgG1a mutant ID No. 330: S428Y, D312P, S434Y, Q311K, L314K (antibody, part only; not given: Variable domains, not shown: another chain or arm of the molecule; small tags and cut ends)
constant: B1 constant with Q197K, D198P, L200K, S316Y, G322Y
B18: feline IgG1a S254P (antibody, part only; not given: Variable domains, not shown: another chain or arm of the molecule)
constant: B1 constant with S140P, G322S
B19: feline IgG1a S252Y/S434H (antibody, part only; not given: Variable domains, not shown: another chain or arm of the molecule)
constant: B1 constant with S138Y, G322H
B20: feline IgG1a mutant ID No. 304: D399M, D401R (antibody, part only; not given: variable domains and light chain, not shown: another chain or arm of the molecule; small tags and cut ends)
constant: B1 constant with D287M, D289R, G322S
B21: feline IgG1a S254C (antibody, part only; not given: Variable domains, not shown: another chain or arm of the molecule)
constant: B1 constant with S140C, G322S
B22: feline IgG1a S434R (antibody, part only; not given: Variable domains, not shown: another chain or arm of the molecule)
constant: B1 constant with G322R
B23: feline IgG1a S252Y (antibody, part only; not given: Variable domains, not shown: another chain or arm of the molecule)
constant: B1 constant with S138Y, G322S
B24: feline IgG1a S252Y/Q311W/D312P (antibody, part only; not given: Variable domains, not shown: another chain or arm of the molecule)
constant: B1 constant with S138Y, Q197W, D198P, G322S
B25: feline IgG1a S252H (antibody, part only; not given: Variable domains, not shown: another chain or arm of the molecule)
constant: B1 constant with S138H, G322S
B26: feline IgG1a mutant ID No. 311: Q311H, D312P, L314K (antibody, part only; not given: Variable domains, not shown: another chain or arm of the molecule; small tags and cut ends)
constant: B1 constant with Q197H, D198P, L200K, G322S
B27: feline IgG1a mutant ID No. 312: Q311K, D312P, L314K (antibody, part only; not given: Variable domains, not shown: another chain or arm of the molecule)
constant: B1 constant with Q197K, D198P, L200K, G322S
B28: feline IgG1a S252F (antibody, part only; not given: Variable domains, not shown: another chain or arm of the molecule)
constant: B1 constant with S138F, G322S
B29: feline IgG1a T256F (antibody, part only; not given: Variable domains, not shown: another chain or arm of the molecule)
constant: B1 constant with T142F, G322S
B30: feline IgG1a H436Y (antibody, part only; not given: Variable domains, not shown: another chain or arm of the molecule)
constant: B1 constant with G322S, H324Y
B31: feline IgG1a mutant ID No. 320: S428Y, D312P, S434P (antibody, part only; not given: Variable domains, not shown: another chain or arm of the molecule)
constant: B1 constant with D198P, S316Y, G322P
B32: feline IgG1a S252F/S434H (antibody, part only; not given: Variable domains, not shown: another chain or arm of the molecule)
constant: B1 constant with S138F, G322H
B33: feline IgG1a Q311Y (antibody, part only; not given: Variable domains, not shown: another chain or arm of the molecule)
constant: B1 constant with Q197Y, G322S
B34: feline IgG1a S434W (antibody, part only; not given: Variable domains, not shown: another chain or arm of the molecule)
constant: B1 constant with G322W
B35: feline IgG1a L314K (antibody, part only; not given: variable domains and light chain, not shown: another chain or arm of the molecule)
constant: B1 constant with L200K, G322S
B36: feline IgG1a S428L/S434Y (antibody, part only; not given: Variable domains, not shown: another chain or arm of the molecule; small tags and cut ends)
constant: B1 constant with S316L, G322Y
B37: feline IgG1a mutant ID No. 313: Q311M, D312P, L314K (antibody, part only; not given: Variable domains, not shown: another chain or arm of the molecule)
constant: B1 constant with Q197M, D198P, L200K, G322S
B38: feline IgG1a mutant ID No. 302: A431K, S434P (antibody, part only; not given: Variable domains, not shown: another chain or arm of the molecule)
constant: B1 constant with A319K, G322P
B39: feline IgG1a S252Y/D312P/L314K (antibody, part only; not given: Variable domains, not shown: another chain or arm of the molecule)
constant: B1 constant with S138Y, D198P, L200K, G322S
B40: feline IgG1a Q311W/D312P (antibody, part only; not given: Variable domains, not shown: another chain or arm of the molecule)
constant: B1 constant with Q197W, D198P, G322S
B41: feline IgG1a mutant ID No. 315: Q311Y, D312P, L314K (antibody, part only; not given: Variable domains, not shown: another chain or arm of the molecule)
constant: B1 constant with Q197Y, D198P, L200K, G322S
B42: feline IgG1a D312P (antibody, part only; not given: Variable domains, not shown: another chain or arm of the molecule)
constant: B1 constant with D198P, G322S
B43: feline IgG1a S252Y/Q311W (antibody, part only; not given: Variable domains, not shown: another chain or arm of the molecule)
constant: B1 constant with S138Y, Q197W, G322S
B44: feline IgG1a S252F/S434W (antibody, part only; not given: Variable domains, not shown: another chain or arm of the molecule)
constant: B1 constant with S138F, G322W
B45: feline IgG1a Q311W (antibody, part only; not given: Variable domains, not shown: another chain or arm of the molecule)
constant: B1 constant with Q197W, G322S
B46: feline IgG1a S254I (antibody, part only; not given: Variable domains, not shown: another chain or arm of the molecule)
constant: B1 constant with S140I, G322S
B47: feline IgG1a Q311W/L314K (antibody, part only; not given: Variable domains, not shown: another chain or arm of the molecule)
constant: B1 constant with Q197W, L200K, G322S
B48: feline IgG1a L314K/S434Y (antibody, part only; not given: Variable domains, not shown: another chain or arm of the molecule)
constant: B1 constant with L200K, G322Y
B49: feline IgG1a mutant ID No. 322: S428Y, D312P, S434Y, D399M, D401R (antibody, part only; not given: variable domains and light chain, not shown: another chain or arm of the molecule)
constant: B1 constant with D198P, D287M, D289R, S316Y, G322Y
B50: feline IgG1a mutant ID No. 307: D401R, T403R (antibody, part only; not given: Variable domains, not shown: another chain or arm of the molecule; small tags and cut ends)
constant: B1 constant with D289R, T291R, G322S

Experiments:
[1] = target: feline FcRn complex (FcRn-α subunit and β-microglobulin), biotin labeled (feline); assay: SPR, pH 6
[2] = target: feline FcRn complex (FcRn-α subunit and β-microglobulin), biotin labeled (feline); assay: SPR, pH 7.4
[3] = target: feline FcRn complex (FcRn-α subunit and β-microglobulin) (feline); assay: SPR (Biacore), FcRn on SA chip, pH 6

Molecule | Kd [1] | Kd [2] | Kd [3]
feline IgG1a T403R (antibody) | 6.22 nM | 840 nM | 
feline IgG1a S434Y/S434F (as printed) (antibody) | 3.61 nM | 94.8 nM | 
feline IgG1a S252H/S428M/D312P (ID No. 215) (antibody) | 3.24 nM | 41.2 nM | 
B1 | 9.58 nM | 21.6 nM | 
B2 |  |  | 12.8 nM
B3 | 9.28 nM | 1470 nM | 
B4 |  |  | 25.3 nM
B5 | 9.91 nM | 49800 nM | 
B6 | 10.1 nM | 9.39 nM | 
B7 | 6.43 nM | 774 nM | 
B8 |  |  | 2130 nM
B9 | 10.8 nM | 179 nM | 
B10 | 173 nM | 2350 nM | 
B11 | 1.53 nM | 37.7 nM | 
B12 | 16.4 nM | 18700 nM | 
B13 | 1.48 nM | 5.06 nM | 
B14 |  |  | 9.6 nM
B15 | 2.21 nM | 41.3 nM | 
B16 | 22.6 nM | 1800 nM | 
B17 |  |  | 0.00906 nM
B18 | 27.3 nM | 5690 nM | 
B19 | 0.774 nM | 11.7 nM | 
B20 |  |  | 5.43 nM
B21 | 44 nM | 2160 nM | 
B22 | 1.19 nM | 16.3 nM | 
B23 | 893 nM | 12700 nM | 
B24 | 35.2 nM | 1130 nM | 

Molecule | Kd [1] | Kd [2] | Kd [3]
B25 | 49.9 nM | 8410 nM | 
B26 |  |  | 1.44 nM
B27 |  |  | 6.07 nM
B28 | 123 nM | 5960 nM | 
B29 | 50.3 nM | 427 nM | 
B30 | 10.2 nM | 43.4 nM | 
B31 |  |  | 22.7 nM
B32 | 1.69 nM | 18.1 nM | 
B33 | 5.53 nM | 41.4 nM | 
B34 | 0.771 nM | 21.6 nM | 
B35 | 8.43 nM | 41.5 nM | 
B36 | 2.75 nM | 46.9 nM | 
B37 |  |  | 18.9 nM
B38 |  |  | 2.17 nM
B39 | 26.7 nM | 1820 nM | 
B40 | 2.76 nM | 50.3 nM | 
B41 |  |  | 11.4 nM
B42 | 3.96 nM | 2960 nM | 
B43 | 26.9 nM | 953 nM | 
B44 | 6.15 nM | 1370 nM | 
B45 | 4.18 nM | 207 nM | 
B46 | 12.4 nM | 16100 nM | 
B47 | 3.47 nM | 55.8 nM | 
B48 | 244 nM | 7430 nM | 
B49 |  |  | 0.00402 nM
B50 |  |  | 15.9 nM
